Measurements published in IntAct's records for PubMed 19279667.

B1: Integrin beta-3 (Homo sapiens), P05106 (parent)
chain: MRARPRPRPLWATVLALGALAGVGVGGPNICTTRGVSSCQQCLAVSPMCAWCSDEALPLGSPRCDLKENLLKDNCAPESIEFPVSEARVLEDRPLSDKGSGDSSQVTQVSPQRIALRLRPDDSKNFSIQVRQVEDYPVDIYYLMDLSYSMKDDLWSIQNLGTKLATQMRKLTSNLRIGFGAFVDKPVSPYMYISPPEALENPCYDMKTTCLPMFGYKHVLTLTDQVTRFNEEVKKQSVSRNRDAPEGGFDAIMQATVCDEKIGWRNDASHLLVFTTDAKTHIALDGRLAGIVQPNDGQCHVGSDNHYSASTTMDYPSLGLMTEKLSQKNINLIFAVTENVVNLYQNYSELIPGTTVGVLSMDSSNVLQLIVDAYGKIRSKVELEVRDLPEELSLSFNATCLNNEVIPGLKSCMGLKIGDTVSFSIEAKVRGCPQEKEKSFTIKPVGFKDSLIVQVTFDCDCACQAQAEPNSHRCNNGNGTFECGVCRCGPGWLGSQCECSEEDYRPSQQDECSPREGQPVCSQRGECLCGQCVCHSSDFGKITGKYCECDDFSCVRYKGEMCSGHGQCSCGDCLCDSDWTGYYCNCTTRTDTCMSSNGLLCSGRGKCECGSCVCIQPGSYGDTCEKCPTCPDACTFKKECVECKKFDRGALHDENTCNRYCRDEIESVKELKDTGKDAVNCTYKNEDDCVVRFQYYEDSSGKSILYVVEEPECPKGPDILVVLLSVMGAILLIGLAALLIWKLLITIHDRKEFAKFEEERARAKWDTANNPLYKEATSTFTNITYRGT

Variants of: B1
Details: with ita2b_human ITGA2B
D749A was tested, and the “effect of a mutation on the interaction” value was “decreasing interaction”.

Variants of: B1
Details: with ita2b_human ITGA2B
Remark: another data set of the same source
In the case of I719A, the “effect of a mutation on the interaction” value is reported as “decreasing interaction”.

Variants of: B1
Details: with ita2b_human ITGA2B
Remark: another data set of the same source
L738A was tested, and the “effect of a mutation on the interaction” value was “decreasing interaction”.

Variants of: B1
Details: with ita2b_human ITGA2B
Remark: another data set of the same source
W741Y was tested, and the “effect of a mutation on the interaction” value was “decreasing interaction”.
